Reference: patent US20240002501A1

Legend:
[1] = biological target: L1-CAM on L1-CAM(+) human tumor cells (human) (UniProt P32004); assay: flow cytometry, JMN mesothelioma cells (control)
[2] = biological target: L1-CAM on L1-CAM(+) human tumor cells (human) (UniProt P32004); assay: flow cytometry, MSTO mesothelioma cells (control)
[3] = biological target: L1-CAM on L1-CAM(+) human tumor cells (human) (UniProt P32004); assay: flow cytometry, VAMT mesothelioma cells (control)
[4] = biological target: L1-CAM on L1-CAM(+) human tumor cells (human) (UniProt P32004); assay: flow cytometry, MESO 9 mesothelioma cells (control)
[5] = biological target: L1-CAM on L1-CAM(+) human tumor cells (human) (UniProt P32004); assay: flow cytometry, MESO 10 mesothelioma cells (control)
[6] = biological target: L1-CAM on L1-CAM(+) human tumor cells (human) (UniProt P32004); assay: flow cytometry, MESO 11 mesothelioma cells (control)
[7] = biological target: L1-CAM on L1-CAM(+) human tumor cells (human) (UniProt P32004); assay: flow cytometry, MESO 34 mesothelioma cells (control)
[8] = biological target: L1-CAM on L1-CAM(+) human tumor cells (human) (UniProt P32004); assay: flow cytometry, MESO 47 mesothelioma cells (control)
[9] = biological target: L1-CAM on L1-CAM(+) human tumor cells (human) (UniProt P32004); assay: flow cytometry, MSTO-21H mesothelioma cells (control)
[10] = biological target: L1-CAM on L1-CAM(+) human tumor cells (human) (UniProt P32004); assay: flow cytometry, NCI-H2052 mesothelioma cells (control)
[11] = biological target: L1-CAM on L1-CAM(+) human tumor cells (human) (UniProt P32004); assay: flow cytometry, 5838 EWS cells (control)
[12] = biological target: L1-CAM on L1-CAM(+) human tumor cells (human) (UniProt P32004); assay: flow cytometry, 8402 ALL cells (control)
[13] = biological target: L1-CAM on L1-CAM(+) human tumor cells (human) (UniProt P32004); assay: flow cytometry, TC32 EWS cells (control)
[14] = biological target: L1-CAM on L1-CAM(+) human tumor cells (human) (UniProt P32004); assay: flow cytometry, TC71 EWS cells (control)
[15] = biological target: L1-CAM on L1-CAM(+) human tumor cells (human) (UniProt P32004); assay: flow cytometry, LAN-1 NB cells (control)
[16] = biological target: L1-CAM on L1-CAM(+) human tumor cells (human) (UniProt P32004); assay: flow cytometry, SKNCM NB cells (control)
[17] = biological target: L1-CAM on L1-CAM(+) human tumor cells (human) (UniProt P32004); assay: flow cytometry, A4573 EWS cells (control)
[18] = biological target: L1-CAM on L1-CAM(+) human tumor cells (human) (UniProt P32004); assay: flow cytometry, HPB-T ALL cells (control)
[19] = biological target: L1-CAM on L1-CAM(+) human tumor cells (human) (UniProt P32004); assay: flow cytometry, SKEAW EWS cells (control)
[20] = biological target: L1-CAM on L1-CAM(+) human tumor cells (human) (UniProt P32004); assay: flow cytometry, SKEFM EWS cells (control)
[21] = biological target: L1-CAM on L1-CAM(+) human tumor cells (human) (UniProt P32004); assay: flow cytometry, SKELP EWS cells (control)
[22] = biological target: L1-CAM on L1-CAM(+) human tumor cells (human) (UniProt P32004); assay: flow cytometry, SKEPR EWS cells (control)
[23] = biological target: L1-CAM on L1-CAM(+) human tumor cells (human) (UniProt P32004); assay: flow cytometry, SKERT EWS cells (control)
[24] = biological target: L1-CAM on L1-CAM(+) human tumor cells (human) (UniProt P32004); assay: flow cytometry, SKNMC EWS cells (control)
[25] = biological target: L1-CAM on L1-CAM(+) human tumor cells (human) (UniProt P32004); assay: flow cytometry, SW480 CRC cells (control)
[26] = biological target: L1-CAM on L1-CAM(+) human tumor cells (human) (UniProt P32004); assay: flow cytometry, THP-1 AML cells (control)
[27] = biological target: L1-CAM on L1-CAM(+) human tumor cells (human) (UniProt P32004); assay: flow cytometry, SKES-1 EWS cells (control)
[28] = biological target: L1-CAM on L1-CAM(+) human tumor cells (human) (UniProt P32004); assay: flow cytometry, CHP-100 EWS cells (control)
[29] = biological target: L1-CAM on L1-CAM(+) human tumor cells (human) (UniProt P32004); assay: flow cytometry, IMR32 LUC NB cells (control)
[30] = biological target: L1-CAM on L1-CAM(+) human tumor cells (human) (UniProt P32004); assay: flow cytometry, M14 melanoma cells (control)
[31] = biological target: L1-CAM on L1-CAM(+) human tumor cells (human) (UniProt P32004); assay: flow cytometry, NCI-H69 SCLC cells (control)
[32] = biological target: L1-CAM on L1-CAM(+) human tumor cells (human) (UniProt P32004); assay: flow cytometry, NCI-H82 SCLC cells (control)
[33] = biological target: L1-CAM on L1-CAM(+) human tumor cells (human) (UniProt P32004); assay: flow cytometry, SKNMM LUC NB cells (control)
[34] = biological target: L1-CAM on L1-CAM(+) human tumor cells (human) (UniProt P32004); assay: flow cytometry, NCI-H345 SCLC cells (control)
[35] = biological target: L1-CAM on L1-CAM(+) human tumor cells (human) (UniProt P32004); assay: flow cytometry, NCI-H524 SCLC cells (control)
[36] = biological target: L1-CAM on L1-CAM(+) human tumor cells (human) (UniProt P32004); assay: flow cytometry, MCF7 breast CA cells (control)
[37] = biological target: L1-CAM on L1-CAM(+) human tumor cells (human) (UniProt P32004); assay: flow cytometry, HTB67 melanoma cells (control)
[38] = biological target: L1-CAM on L1-CAM(+) human tumor cells (human) (UniProt P32004); assay: flow cytometry, AU565 breast CA cells (control)
[39] = biological target: L1-CAM on L1-CAM(+) human tumor cells (human) (UniProt P32004); assay: flow cytometry, HTB24 breast CA cells (control)
[40] = biological target: L1-CAM on L1-CAM(+) human tumor cells (human) (UniProt P32004); assay: flow cytometry, HTB25 breast CA cells (control)
[41] = biological target: L1-CAM on L1-CAM(+) human tumor cells (human) (UniProt P32004); assay: flow cytometry, SKMEL28 melanoma cells (control)
[42] = biological target: L1-CAM on L1-CAM(+) human tumor cells (human) (UniProt P32004); assay: flow cytometry, UM SCC 22B HNSCC cells (control)
[43] = biological target: L1-CAM on L1-CAM(+) human tumor cells (human) (UniProt P32004); assay: flow cytometry, ACC 104 M-07e AML cells (control)
[44] = biological target: L1-CAM on L1-CAM(+) human tumor cells (human) (UniProt P32004); assay: flow cytometry, HCC1954 breast CA cells (control)
[45] = biological target: L1-CAM on L1-CAM(+) human tumor cells (human) (UniProt P32004); assay: flow cytometry, U2OS osteosarcoma cells (control)
[46] = biological target: L1-CAM on L1-CAM(+) human tumor cells (human) (UniProt P32004); assay: flow cytometry, RG143B osteosarcoma cells (control)
[47] = biological target: L1-CAM on L1-CAM(+) human tumor cells (human) (UniProt P32004); assay: flow cytometry, CRL1427 osteosarcoma cells (control)
[48] = biological target: L1-CAM on L1-CAM(+) human tumor cells (human) (UniProt P32004); assay: flow cytometry, RH28 rhabdomyosarcoma cells (control)
[49] = biological target: L1-CAM on L1-CAM(+) human tumor cells (human) (UniProt P32004); assay: flow cytometry, RH30 rhabdomyosarcoma cells (control)
[50] = biological target: L1-CAM on L1-CAM(+) human tumor cells (human) (UniProt P32004); assay: flow cytometry, RH36 rhabdomyosarcoma cells (control)
[51] = biological target: L1-CAM on L1-CAM(+) human tumor cells (human) (UniProt P32004); assay: flow cytometry, RH41 rhabdomyosarcoma cells (control)
[52] = biological target: L1-CAM on L1-CAM(+) human tumor cells (human) (UniProt P32004); assay: flow cytometry, RH48 rhabdomyosarcoma cells (control)
[53] = biological target: L1-CAM on L1-CAM(+) human tumor cells (human) (UniProt P32004); assay: flow cytometry, HTB82 rhabdomyosarcoma cells (control)
[54] = biological target: L1-CAM on L1-CAM(+) human tumor cells (human) (UniProt P32004); assay: flow cytometry, HTB-41 A253 submaxillary salivary gland cells (control)

L1-CAM on L1-CAM(+) human tumor cells (human), sequence (P32004 20-1257 limits assumed): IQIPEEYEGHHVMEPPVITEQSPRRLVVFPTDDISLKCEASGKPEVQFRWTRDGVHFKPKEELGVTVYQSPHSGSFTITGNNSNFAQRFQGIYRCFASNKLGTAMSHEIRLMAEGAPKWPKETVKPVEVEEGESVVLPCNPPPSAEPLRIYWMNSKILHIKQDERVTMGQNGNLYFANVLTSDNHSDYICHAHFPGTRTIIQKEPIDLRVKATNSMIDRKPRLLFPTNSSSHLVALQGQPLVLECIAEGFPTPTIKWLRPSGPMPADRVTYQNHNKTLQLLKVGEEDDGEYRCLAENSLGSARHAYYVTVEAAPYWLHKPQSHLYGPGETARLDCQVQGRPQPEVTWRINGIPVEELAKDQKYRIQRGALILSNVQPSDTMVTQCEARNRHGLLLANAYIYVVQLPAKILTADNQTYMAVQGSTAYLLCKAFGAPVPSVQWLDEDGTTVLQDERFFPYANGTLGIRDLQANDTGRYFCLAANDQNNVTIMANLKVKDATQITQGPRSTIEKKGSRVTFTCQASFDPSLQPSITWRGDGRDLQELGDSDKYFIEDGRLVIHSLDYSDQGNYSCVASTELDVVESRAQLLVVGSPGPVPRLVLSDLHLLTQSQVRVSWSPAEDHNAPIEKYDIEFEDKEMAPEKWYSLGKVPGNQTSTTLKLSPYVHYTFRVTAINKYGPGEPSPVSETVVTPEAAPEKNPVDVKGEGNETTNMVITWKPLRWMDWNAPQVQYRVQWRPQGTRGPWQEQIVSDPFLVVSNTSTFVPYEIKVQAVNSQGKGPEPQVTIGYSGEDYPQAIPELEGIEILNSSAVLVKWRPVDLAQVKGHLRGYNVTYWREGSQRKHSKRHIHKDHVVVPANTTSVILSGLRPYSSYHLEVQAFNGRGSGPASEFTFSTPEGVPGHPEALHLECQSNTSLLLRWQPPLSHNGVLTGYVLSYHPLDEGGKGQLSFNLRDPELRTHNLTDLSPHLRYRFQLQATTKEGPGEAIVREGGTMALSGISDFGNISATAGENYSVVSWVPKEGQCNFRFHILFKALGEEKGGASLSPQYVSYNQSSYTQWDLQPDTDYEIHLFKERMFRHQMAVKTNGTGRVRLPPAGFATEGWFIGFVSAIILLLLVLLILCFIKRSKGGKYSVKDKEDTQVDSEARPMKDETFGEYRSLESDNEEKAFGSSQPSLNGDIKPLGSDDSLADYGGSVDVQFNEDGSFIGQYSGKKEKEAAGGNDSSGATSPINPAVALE

MOPC 21 (antibody) showed an MFI [1] of 5, an MFI [2] of 5 and an MFI [3] of 5. For the same substance, the MFI [4] was 5, the MFI [5] was 5 and the MFI [6] was 5. For the same substance, the MFI [7] was 5, the MFI [8] was 5 and the MFI [9] was 5. For the same substance, the MFI [10] was 5.
Rituxan (antibody) gave an MFI [11] of 5, an MFI [12] of 4 and an MFI [13] of 5. It also gave an MFI [14] of 5, an MFI [15] of 6 and an MFI [16] of 5. It also gave an MFI [17] of 5, an MFI [18] of 5 and an MFI [19] of 5. It also gave an MFI [20] of 5, an MFI [21] of 5 and an MFI [22] of 3. It also gave an MFI [23] of 5, an MFI [24] of 5 and an MFI [25] of 5. For the same substance, the MFI [26] was 5, the MFI [27] was 5 and the MFI [28] was 5. It also gave an MFI [29] of 4, an MFI [30] of 5 and an MFI [31] of 4. For the same substance, the MFI [32] was 5, the MFI [33] was 4 and the MFI [34] was 3. For the same substance, the MFI [35] was 3, the MFI [36] was 5 and the MFI [37] was 5. The MFI [38] was 5, the MFI [39] was 6 and the MFI [40] was 5. It also gave an MFI [41] of 5, an MFI [42] of 5 and an MFI [43] of 5. For the same substance, the MFI [44] was 5, the MFI [45] was 5 and the MFI [46] was 5. It also gave an MFI [47] of 5, an MFI [48] of 5 and an MFI [49] of 5. The MFI [50] was 5, the MFI [51] was 5 and the MFI [52] was 5. For the same substance, the MFI [53] was 5 and the MFI [54] was 5.
